Reference: article PMC9820253, “Integration Host Factor Binds DNA Holliday Junctions”
Changes are numbered by the printed parent chain.

How the values were obtained:
[1] = molecular target: T1, Integration Host Factor (IHF) (Escherichia coli (purified from E. coli …, UniProt P0A6X7;P0A6Y1 1-99;1-94)); test: EMSA; 70 mM KCl, no Mg2+; 5 mM Tris-HCl pH 7.4-7.6, 70 mM KCl, 0.1 mM EDTA, 0.5-10% ethylene glycol, fluorescence at 10 C; Mg buffer: 5 mM Tris-HCl pH 7.4, 1 mM MgCl2, 10% ethylene glycol; stopped flow 20 C with 0.01% NP-40; settings: protein: recombinant; copies: 1;1; label: none for EMSA (SYBR Green); immobile four-way junction of 4 strands (34 nt), four 17 bp arms
[2] = molecular target: T1, Integration Host Factor (IHF); test: fluorescence intensity; 70 mM KCl; 0.5 nM DNA; printed as <=2.2; 5 mM Tris-HCl pH 7.4-7.6, 70 mM KCl, 0.1 mM EDTA, 0.5-10% ethylene glycol, fluorescence at 10 C; Mg buffer: 5 mM Tris-HCl pH 7.4, 1 mM MgCl2, 10% ethylene glycol; stopped flow 20 C with 0.01% NP-40; settings: protein: recombinant; copies: 1;1; label: 6-MI; immobile four-way junction of 4 strands (34 nt), four 17 bp arms
[3] = molecular target: T1, Integration Host Factor (IHF); test: EMSA; 70 mM KCl; apparent; 5 mM Tris-HCl pH 7.4-7.6, 70 mM KCl, 0.1 mM EDTA, 0.5-10% ethylene glycol, fluorescence at 10 C; Mg buffer: 5 mM Tris-HCl pH 7.4, 1 mM MgCl2, 10% ethylene glycol; stopped flow 20 C with 0.01% NP-40; settings: protein: recombinant, copies: 1;1, label: none for EMSA (SYBR Green)
[4] = molecular target: T1, Integration Host Factor (IHF); test: fluorescence intensity; 70 mM KCl; end-labeled; 5 mM Tris-HCl pH 7.4-7.6, 70 mM KCl, 0.1 mM EDTA, 0.5-10% ethylene glycol, fluorescence at 10 C; Mg buffer: 5 mM Tris-HCl pH 7.4, 1 mM MgCl2, 10% ethylene glycol; stopped flow 20 C with 0.01% NP-40; settings: protein: recombinant, copies: 1;1, label: none for EMSA (SYBR Green), immobile four-way junction of 4 strands, four 17 bp arms
[5] = molecular target: T1, Integration Host Factor (IHF); test: fluorescence anisotropy; 70 mM KCl; 2 nM DNA; 5 mM Tris-HCl pH 7.4-7.6, 70 mM KCl, 0.1 mM EDTA, 0.5-10% ethylene glycol, fluorescence at 10 C; Mg buffer: 5 mM Tris-HCl pH 7.4, 1 mM MgCl2, 10% ethylene glycol; stopped flow 20 C with 0.01% NP-40; settings: protein: recombinant; copies: 1;1; label: fluorescein (end); immobile four-way junction of 4 strands (34 nt), four 17 bp arms
[6] = molecular target: T1, Integration Host Factor (IHF); test: EMSA; 1 mM Mg2+; apparent; 5 mM Tris-HCl pH 7.4-7.6, 70 mM KCl, 0.1 mM EDTA, 0.5-10% ethylene glycol, fluorescence at 10 C; Mg buffer: 5 mM Tris-HCl pH 7.4, 1 mM MgCl2, 10% ethylene glycol; stopped flow 20 C with 0.01% NP-40; settings: protein: recombinant; copies: 1;1; label: none for EMSA (SYBR Green); 5' TAMRA for fluorescence intensity; donor-acceptor pair for stopped flow; four-way junction of 4 strands (20 nt), four 10 bp arms
[7] = molecular target: T1, Integration Host Factor (IHF); test: fluorescence anisotropy; 1 mM Mg2+?; 5 mM Tris-HCl pH 7.4-7.6, 70 mM KCl, 0.1 mM EDTA, 0.5-10% ethylene glycol, fluorescence at 10 C; Mg buffer: 5 mM Tris-HCl pH 7.4, 1 mM MgCl2, 10% ethylene glycol; stopped flow 20 C with 0.01% NP-40; settings: protein: recombinant; copies: 1;1; label: none for EMSA (SYBR Green); 5' TAMRA for fluorescence intensity; donor-acceptor pair for stopped flow; four-way junction of 4 strands (20 nt), four 10 bp arms
[8] = molecular target: T1, Integration Host Factor (IHF); test: fluorescence intensity; 70 mM KCl; 5'-TAMRA; 5 mM Tris-HCl pH 7.4-7.6, 70 mM KCl, 0.1 mM EDTA, 0.5-10% ethylene glycol, fluorescence at 10 C; Mg buffer: 5 mM Tris-HCl pH 7.4, 1 mM MgCl2, 10% ethylene glycol; stopped flow 20 C with 0.01% NP-40; settings: protein: recombinant; copies: 1;1; label: none for EMSA (SYBR Green); 5' TAMRA for fluorescence intensity; donor-acceptor pair for stopped flow; four-way junction of 4 strands (20 nt), four 10 bp arms

T1 sequence (P0A6X7 whole entry, chain 1 of 2): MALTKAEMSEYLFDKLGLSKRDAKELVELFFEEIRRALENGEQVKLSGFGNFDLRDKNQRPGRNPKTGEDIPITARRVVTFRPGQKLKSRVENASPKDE
T1 sequence (P0A6Y1 whole entry, chain 2 of 2): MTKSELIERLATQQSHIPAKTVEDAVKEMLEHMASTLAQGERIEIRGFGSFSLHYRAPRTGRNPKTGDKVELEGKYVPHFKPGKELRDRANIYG

B1: J34 junction (structured_DNA)
DNA 1: CCTTCAACCACCGCTCAACTCAACTGCAGTCTGG
DNA 2: CCAGACTGCAGTTGAGTCCTTGCTAGGACGGAGG
DNA 3: CCTCCGTCCTAGCAAGGGGCTGCTACCGGAAGGG
DNA 4: CCCTTCCGGTAGCAGCCTGAGCGGTGGTTGAAGG
Kd [1]: 58 ± 36 nM

B2: J34 junction, 6-MI labeled (structured_DNA)
DNA 1: B1 DNA 1
DNA 2: B1 DNA 2
DNA 3: B1 DNA 3
DNA 4: B1 DNA 4
modifications: 6-methylisoxanthopterin (6-MI) nucleoside
Kd [2]: < 2.2 nM

B3: JH1 junction (structured_DNA)
DNA 1: CCTTCAACCACCGCTCATGATTACTGCAGTCTGG
DNA 2: CCAGACTGCAGTAATCAACTACTTAGGACGGAGG
DNA 3: B1 DNA 3 with G12A, C13G, A14T, G17T
DNA 4: B1 DNA 4 with C22T
Kd ([3]; end label for fluorescence, immobile four-way junction of 4 strands, four 17 bp arms): 65 ± 8 nM
Kd [4]: 9.2 ± 2 nM

B4: J34 junction, fluorescein end-labeled (structured_DNA)
DNA 1: B1 DNA 1
DNA 2: B1 DNA 2
DNA 3: B1 DNA 3
DNA 4: B1 DNA 4
Kd [5]: 2 nM

B5: J20 junction (structured_DNA)
DNA 1: CCACCGCTCAACTCAACTGC
DNA 2: GCAGTTGAGTCCTTGCTAGG
DNA 3: CCTAGCAAGGGGCTGCTACC
DNA 4: GGTAGCAGCCTGAGCGGTGG
Kd [6]: 514 ± 141 nM
Kd ([3]; 5' TAMRA for fluorescence intensity, donor-acceptor pair for stopped flow, four-way junction of 4 strands (20 nt), four 10 bp arms): 170 ± 40 nM
Kd [7]: 43 ± 11 nM
Kd [8]: 4.4 ± 0.5 nM
